From article PMC11178795, “Hydrogen peroxide is required for light-induced stomatal opening across different plant species” (Nature Communications, 2024) come the findings set out here.

Experiment [1] deals with T1, GST-bZIP30 (Arabidopsis thaliana, UniProt Q9SIG8 1-519).
T1 construct: bZIP30 transcription factor, Arabidopsis, AT2G21230; full-length coding region without stop codon; destination vector pDEST15 (N-GST); source: Escherichia coli, purified (glutathione beads); not shown: GST, N-terminal, kept
T1 sequence (looked up): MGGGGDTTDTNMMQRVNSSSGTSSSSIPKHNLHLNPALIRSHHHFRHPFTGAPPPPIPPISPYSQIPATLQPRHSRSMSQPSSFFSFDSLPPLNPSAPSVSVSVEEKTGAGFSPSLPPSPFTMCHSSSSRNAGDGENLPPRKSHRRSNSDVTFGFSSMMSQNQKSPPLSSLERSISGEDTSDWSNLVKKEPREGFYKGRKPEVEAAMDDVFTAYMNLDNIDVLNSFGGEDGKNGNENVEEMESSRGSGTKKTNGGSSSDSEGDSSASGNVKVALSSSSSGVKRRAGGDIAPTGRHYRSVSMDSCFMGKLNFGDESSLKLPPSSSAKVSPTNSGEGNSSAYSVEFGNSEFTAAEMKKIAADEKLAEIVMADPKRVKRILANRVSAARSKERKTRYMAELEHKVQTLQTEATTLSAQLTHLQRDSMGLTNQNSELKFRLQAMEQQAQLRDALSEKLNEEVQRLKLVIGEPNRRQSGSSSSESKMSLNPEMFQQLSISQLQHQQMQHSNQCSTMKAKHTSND
Nature of the experiment: pull-down; 1 μg GST fusion on glutathione beads incubated with 1 µg MBP or MBP fusion; 20 mM Tris-HCl pH 7.5, 100 mM NaCl, 1 mM EDTA; with or without 1 mM H2O2; room temperature; washes with 300 mM NaCl, 0.5% Triton X-100; anti-MBP immunoblot. To be noted: both partners purified. A general note: In western blotting, separated proteins are transferred to a membrane and probed.

Experiment [2] concerns the target T2, GST-bZIP30 (Arabidopsis thaliana (Mouse-ear cress), UniProt Q9SIG8).
T2 chain: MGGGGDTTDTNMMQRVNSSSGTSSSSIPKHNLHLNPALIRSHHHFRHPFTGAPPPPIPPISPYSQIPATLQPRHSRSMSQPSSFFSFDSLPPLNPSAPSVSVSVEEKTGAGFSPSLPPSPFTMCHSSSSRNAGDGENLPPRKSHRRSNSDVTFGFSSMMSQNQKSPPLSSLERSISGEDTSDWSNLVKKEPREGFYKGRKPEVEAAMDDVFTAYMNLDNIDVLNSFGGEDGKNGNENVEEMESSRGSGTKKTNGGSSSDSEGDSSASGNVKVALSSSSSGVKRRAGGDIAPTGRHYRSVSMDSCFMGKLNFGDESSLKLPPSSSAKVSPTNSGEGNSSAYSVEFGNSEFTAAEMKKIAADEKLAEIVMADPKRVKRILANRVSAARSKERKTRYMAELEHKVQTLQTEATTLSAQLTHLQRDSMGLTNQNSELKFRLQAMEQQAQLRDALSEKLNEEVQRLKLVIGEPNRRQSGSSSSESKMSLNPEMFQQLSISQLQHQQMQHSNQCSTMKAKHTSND
Nature of the experiment: GST pull-down; binding enhanced by 1 mM H2O2 (oxidation of BZR1, Cys63).

Another experiment addresses T3, MBP-bZIP30 (Arabidopsis thaliana, UniProt Q9SIG8 1-519).
T3 construct: bZIP30 transcription factor, Arabidopsis, AT2G21230; full-length coding region without stop codon; destination vector pMAL2CGW (N-MBP); source: Escherichia coli, purified (amylose resin); not shown: MBP, N-terminal, kept
T3 sequence (looked up): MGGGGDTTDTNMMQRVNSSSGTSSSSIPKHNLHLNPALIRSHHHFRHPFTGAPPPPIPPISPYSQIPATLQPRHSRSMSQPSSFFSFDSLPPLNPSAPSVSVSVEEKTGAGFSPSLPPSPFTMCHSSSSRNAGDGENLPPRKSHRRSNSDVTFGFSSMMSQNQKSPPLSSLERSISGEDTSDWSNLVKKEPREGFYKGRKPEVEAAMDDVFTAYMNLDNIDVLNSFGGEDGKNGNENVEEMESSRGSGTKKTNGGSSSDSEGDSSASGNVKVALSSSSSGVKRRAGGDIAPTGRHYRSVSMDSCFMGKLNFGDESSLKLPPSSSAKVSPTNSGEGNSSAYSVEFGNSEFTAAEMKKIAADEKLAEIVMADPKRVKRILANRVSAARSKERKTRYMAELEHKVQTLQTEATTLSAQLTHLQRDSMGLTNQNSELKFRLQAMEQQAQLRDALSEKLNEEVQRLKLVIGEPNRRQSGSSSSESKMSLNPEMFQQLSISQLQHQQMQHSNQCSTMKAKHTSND
Nature of the experiment: pull-down; 1 μg GST fusion on glutathione beads incubated with 1 µg MBP or MBP fusion; 20 mM Tris-HCl pH 7.5, 100 mM NaCl, 1 mM EDTA; with or without 1 mM H2O2; room temperature; washes with 300 mM NaCl, 0.5% Triton X-100; anti-MBP immunoblot. Particulars: both partners purified.

B1: MBP-KIN10 (enzyme, Arabidopsis thaliana, UniProt Q38997 1-512, looked up)
chain: MDGSGTGSRSGVESILPNYKLGRTLGIGSFGRVKIAEHALTGHKVAIKILNRRKIKNMEMEEKVRREIKILRLFMHPHIIRLYEVIETPTDIYLVMEYVNSGELFDYIVEKGRLQEDEARNFFQQIISGVEYCHRNMVVHRDLKPENLLLDSKCNVKIADFGLSNIMRDGHFLKTSCGSPNYAAPEVISGKLYAGPEVDVWSCGVILYALLCGTLPFDDENIPNLFKKIKGGIYTLPSHLSPGARDLIPRMLVVDPMKRVTIPEIRQHPWFQAHLPRYLAVPPPDTVQQAKKIDEEILQEVINMGFDRNHLIESLRNRTQNDGTVTYYLILDNRFRASSGYLGAEFQETMEGTPRMHPAESVASPVSHRLPGLMEYQGVGLRSQYPVERKWALGLQSRAHPREIMTEVLKALQDLNVCWKKIGHYNMKCRWVPNSSADGMLSNSMHDNNYFGDESSIIENEAAVKSPNVVKFEIQLYKTRDDKYLLDLQRVQGPQFLFLDLCAAFLAQLRVL
notes: KIN10, catalytic subunit of SnRK1, Arabidopsis, AT3G01090; full-length coding region without stop codon; destination vector pMAL2CGW (N-MBP); source: Escherichia coli, purified (amylose resin); not shown: MBP, N-terminal, kept
On to B1, for which the binding result with GST-bZIP30 [1] is on record as “binds”.

B2: MBP-BZR1 (natural protein, Arabidopsis thaliana, UniProt Q8S307 1-336, looked up)
chain: MTSDGATSTSAAAAAAAAAAARRKPSWRERENNRRRERRRRAVAAKIYTGLRAQGDYNLPKHCDNNEVLKALCVEAGWVVEEDGTTYRKGCKPLPGEIAGTSSRVTPYSSQNQSPLSSAFQSPIPSYQVSPSSSSFPSPSRGEPNNNMSSTFFPFLRNGGIPSSLPSLRISNSCPVTPPVSSPTSKNPKPLPNWESIAKQSMAIAKQSMASFNYPFYAVSAPASPTHRHQFHTPATIPECDESDSSTVDSGHWISFQKFAQQQPFSASMVPTSPTFNLVKPAPQQMSPNTAAFQEIGQSSEFKFENSQVKPWEGERIHDVGMEDLELTLGNGKARG
notes: BRASSINAZOLE-RESISTANT1 (BZR1), Arabidopsis, AT1G75080; full-length coding region without stop codon; destination vector pMAL2CGW (N-MBP); source: Escherichia coli, purified (amylose resin); not shown: MBP, N-terminal, kept
Regarding B2, the binding result in the experiment with GST-bZIP30 [2] and with GST-bZIP30 [1] was “binds” throughout.

B3: GST-BZR1 (natural protein, Arabidopsis thaliana, UniProt Q8S307 1-336, looked up)
chain: MTSDGATSTSAAAAAAAAAAARRKPSWRERENNRRRERRRRAVAAKIYTGLRAQGDYNLPKHCDNNEVLKALCVEAGWVVEEDGTTYRKGCKPLPGEIAGTSSRVTPYSSQNQSPLSSAFQSPIPSYQVSPSSSSFPSPSRGEPNNNMSSTFFPFLRNGGIPSSLPSLRISNSCPVTPPVSSPTSKNPKPLPNWESIAKQSMAIAKQSMASFNYPFYAVSAPASPTHRHQFHTPATIPECDESDSSTVDSGHWISFQKFAQQQPFSASMVPTSPTFNLVKPAPQQMSPNTAAFQEIGQSSEFKFENSQVKPWEGERIHDVGMEDLELTLGNGKARG
notes: BRASSINAZOLE-RESISTANT1 (BZR1), Arabidopsis, AT1G75080; full-length coding region without stop codon; destination vector pDEST15 (N-GST); source: Escherichia coli, purified (glutathione beads); not shown: GST, N-terminal, kept
Regarding B3, the binding result in the experiment with MBP-bZIP30 is recorded as “binds”.
